Experiment in all cases: SEC
Data set [1] has as its target yeast Cox11-Trx (fusion of the extramembrane domain of yeast Cox11 with E. coli thioredoxin) (yeast).
Data set [2] deals with the molecule itself.
Data set [3] deals with the molecule itself. This is another data set of the same source.

Experimental findings from publication PMC2994652 (Biochemistry, 2010) are described below.

As usually defined, the stoichiometry N is the number of molecules, sites or subunits per partner or assembly.

Values joined by “and” are separate entries in the source; they are usually repeats but may differ in a detail not shown here. Equal values may be shown once. Read-outs that look alike come from different tables or passages of the source.

On to “yeast Cox11-Trx (fusion of the extramembrane domain of yeast Cox11 with E. coli thioredoxin) (domain or fragment)”, for which, in data set [1], the stoichiometry N was 2 and 4.

B1: C35S Cox11-Trx (domain or fragment, Rhodobacter sphaeroides, UniProt P56940 32-191, looked up)
chain: NWFSRVTGFAGTTAVATEAPAEVLDRTVKVRFDASREAGMPWEFRPLQREMKLKIGETGLAFYEAYNPTDRTVAGTASYNVTPDAAGGYFAKIACFCFTEQVLAPGERVEMPVTFYVDPAIIDDPDGRYVRQITLSYTFHETALTEEQAALAAESATDVN
Regarding B1, the “stoichiometry N” value in “SEC [2]” was 2 and 4.

B2: K123L-E131K Cox11-Trx (domain or fragment, Rhodobacter sphaeroides, UniProt P56940 32-191, looked up)
chain: NWFCRVTGFAGTTAVATEAPAEVLDRTVKVRFDASREAGMPWEFRPLQREMKLKIGETGLAFYEAYNPTDRTVAGTASYNVTPDAAGGYFALIACFCFTKQVLAPGERVEMPVTFYVDPAIIDDPDGRYVRQITLSYTFHETALTEEQAALAAESATDVN
For B2, the “stoichiometry N” value was determined as 2 in “SEC [2]” and 4 in the data set “SEC [3]”.

B3: Y110R Cox11-Trx (domain or fragment, Rhodobacter sphaeroides, UniProt P56940 32-191, looked up)
chain: NWFCRVTGFAGTTAVATEAPAEVLDRTVKVRFDASREAGMPWEFRPLQREMKLKIGETGLAFYEAYNPTDRTVAGTASRNVTPDAAGGYFAKIACFCFTEQVLAPGERVEMPVTFYVDPAIIDDPDGRYVRQITLSYTFHETALTEEQAALAAESATDVN
Take B3: the “stoichiometry N” value in “SEC [2]” was found to be 4.

B4: K123R Cox11-Trx (domain or fragment, Rhodobacter sphaeroides, UniProt P56940 32-191, looked up)
chain: NWFCRVTGFAGTTAVATEAPAEVLDRTVKVRFDASREAGMPWEFRPLQREMKLKIGETGLAFYEAYNPTDRTVAGTASYNVTPDAAGGYFARIACFCFTEQVLAPGERVEMPVTFYVDPAIIDDPDGRYVRQITLSYTFHETALTEEQAALAAESATDVN
Turning to B4, the “stoichiometry N” value in “SEC [3]” turned out to be 4.

B5: C126A-C128A Cox11-Trx (domain or fragment, Rhodobacter sphaeroides, UniProt P56940 32-191, looked up)
chain: NWFCRVTGFAGTTAVATEAPAEVLDRTVKVRFDASREAGMPWEFRPLQREMKLKIGETGLAFYEAYNPTDRTVAGTASYNVTPDAAGGYFAKIAAFAFTEQVLAPGERVEMPVTFYVDPAIIDDPDGRYVRQITLSYTFHETALTEEQAALAAESATDVN
As for B5, the “stoichiometry N” value in “SEC [3]” came to 4.

B6: Y110E Cox11-Trx (domain or fragment, Rhodobacter sphaeroides, UniProt P56940 32-191, looked up)
chain: NWFCRVTGFAGTTAVATEAPAEVLDRTVKVRFDASREAGMPWEFRPLQREMKLKIGETGLAFYEAYNPTDRTVAGTASENVTPDAAGGYFAKIACFCFTEQVLAPGERVEMPVTFYVDPAIIDDPDGRYVRQITLSYTFHETALTEEQAALAAESATDVN
Turning to B6, the “stoichiometry N” value in the data set “SEC [2]” is 4.

B7: C126A Cox11-Trx (domain or fragment, Rhodobacter sphaeroides, UniProt P56940 32-191, looked up)
chain: NWFCRVTGFAGTTAVATEAPAEVLDRTVKVRFDASREAGMPWEFRPLQREMKLKIGETGLAFYEAYNPTDRTVAGTASYNVTPDAAGGYFAKIAAFCFTEQVLAPGERVEMPVTFYVDPAIIDDPDGRYVRQITLSYTFHETALTEEQAALAAESATDVN
B7: the “stoichiometry N” value in “SEC [3]” came to 4.

B8: F127Y Cox11-Trx (domain or fragment, Rhodobacter sphaeroides, UniProt P56940 32-191, looked up)
chain: NWFCRVTGFAGTTAVATEAPAEVLDRTVKVRFDASREAGMPWEFRPLQREMKLKIGETGLAFYEAYNPTDRTVAGTASYNVTPDAAGGYFAKIACYCFTEQVLAPGERVEMPVTFYVDPAIIDDPDGRYVRQITLSYTFHETALTEEQAALAAESATDVN
In the case of B8, the “stoichiometry N” value in “SEC [3]” is 4.

B9: C35S-C126A-C128A Cox11-Trx (domain or fragment, Rhodobacter sphaeroides, UniProt P56940 32-191, looked up)
chain: NWFSRVTGFAGTTAVATEAPAEVLDRTVKVRFDASREAGMPWEFRPLQREMKLKIGETGLAFYEAYNPTDRTVAGTASYNVTPDAAGGYFAKIAAFAFTEQVLAPGERVEMPVTFYVDPAIIDDPDGRYVRQITLSYTFHETALTEEQAALAAESATDVN
Turning to B9, in “SEC [3]”, the “stoichiometry N” value stood at 4.

B10: K123E Cox11-Trx (domain or fragment, Rhodobacter sphaeroides, UniProt P56940 32-191, looked up)
chain: NWFCRVTGFAGTTAVATEAPAEVLDRTVKVRFDASREAGMPWEFRPLQREMKLKIGETGLAFYEAYNPTDRTVAGTASYNVTPDAAGGYFAEIACFCFTEQVLAPGERVEMPVTFYVDPAIIDDPDGRYVRQITLSYTFHETALTEEQAALAAESATDVN
On to B10, for which, in the data set “SEC [3]”, the “stoichiometry N” value is 4.

B11: C128A Cox11-Trx (domain or fragment, Rhodobacter sphaeroides, UniProt P56940 32-191, looked up)
chain: NWFCRVTGFAGTTAVATEAPAEVLDRTVKVRFDASREAGMPWEFRPLQREMKLKIGETGLAFYEAYNPTDRTVAGTASYNVTPDAAGGYFAKIACFAFTEQVLAPGERVEMPVTFYVDPAIIDDPDGRYVRQITLSYTFHETALTEEQAALAAESATDVN
For B11, the “stoichiometry N” value in “SEC [3]” amounted to 4.

B12: F127I Cox11-Trx (domain or fragment, Rhodobacter sphaeroides, UniProt P56940 32-191, looked up)
chain: NWFCRVTGFAGTTAVATEAPAEVLDRTVKVRFDASREAGMPWEFRPLQREMKLKIGETGLAFYEAYNPTDRTVAGTASYNVTPDAAGGYFAKIACICFTEQVLAPGERVEMPVTFYVDPAIIDDPDGRYVRQITLSYTFHETALTEEQAALAAESATDVN
Take B12: the “stoichiometry N” value in the data set “SEC [3]” was determined as 4.

B13: E131K Cox11-Trx (domain or fragment, Rhodobacter sphaeroides, UniProt P56940 32-191, looked up)
chain: NWFCRVTGFAGTTAVATEAPAEVLDRTVKVRFDASREAGMPWEFRPLQREMKLKIGETGLAFYEAYNPTDRTVAGTASYNVTPDAAGGYFAKIACFCFTKQVLAPGERVEMPVTFYVDPAIIDDPDGRYVRQITLSYTFHETALTEEQAALAAESATDVN
In the case of B13, the “stoichiometry N” value in “SEC [3]” came to 4.

B14: K123L Cox11-Trx (domain or fragment, Rhodobacter sphaeroides, UniProt P56940 32-191, looked up)
chain: NWFCRVTGFAGTTAVATEAPAEVLDRTVKVRFDASREAGMPWEFRPLQREMKLKIGETGLAFYEAYNPTDRTVAGTASYNVTPDAAGGYFALIACFCFTEQVLAPGERVEMPVTFYVDPAIIDDPDGRYVRQITLSYTFHETALTEEQAALAAESATDVN
For the molecule B14, the figures for the “stoichiometry N” value in “SEC [2]” and in “SEC [3]” were 2 and 4, respectively.

B15: Cox11 domain of R. sphaeroides Cox11-Trx after cleavage from Trx (domain or fragment, Rhodobacter sphaeroides, UniProt P56940 32-191, looked up)
chain: NWFCRVTGFAGTTAVATEAPAEVLDRTVKVRFDASREAGMPWEFRPLQREMKLKIGETGLAFYEAYNPTDRTVAGTASYNVTPDAAGGYFAKIACFCFTEQVLAPGERVEMPVTFYVDPAIIDDPDGRYVRQITLSYTFHETALTEEQAALAAESATDVN
As for B15, in “SEC [2]”, the “stoichiometry N” value stood at 4.

B16: F129Y Cox11-Trx (domain or fragment, Rhodobacter sphaeroides, UniProt P56940 32-191, looked up)
chain: NWFCRVTGFAGTTAVATEAPAEVLDRTVKVRFDASREAGMPWEFRPLQREMKLKIGETGLAFYEAYNPTDRTVAGTASYNVTPDAAGGYFAKIACFCYTEQVLAPGERVEMPVTFYVDPAIIDDPDGRYVRQITLSYTFHETALTEEQAALAAESATDVN
For B16, the “stoichiometry N” value in the data set “SEC [3]” is 4.
